Assay results from a protein production outcome set (Wang et al. 2014).

Test: label from the status in PepcDB records

| Sequence | protein production |
| --- | --- |
| MIAAYENSKWEPVKWENDMHCAVKIQDKNQWRRGQIIRMVTDTLVEVLLYDVGVELVVNVDCLRKLEENLKTMGRLSL | not failed |
| MIADDPHLELRLAASERDLRAAQRLRYTVFVEELGGDGDLVDHAERLERDEFDDLCDHLLLIDRRRDAAALEDVVGVYRLLPGERAAGAGRFYCDSEYDLDPLRASGRRVLELGRSCVHPDYRGGAAVFLLWSGLADYALAQRTELLFGVASFHGTDIEALAEPLSYLHAFHLAPEELRVRARSEGGQRMDLIPPERIDRRAAMLA | not failed |
| MIAGFDAKLVASADTPLTIGNVPSGMEALLLADMARAGTSVAYVMSDGQRVADLEQILGFVAPDIPVLTLPAWDCLPYDRVSPSADTSARRLAALAGLINHAKKPHPAVVLVTVNAMLQKMAPRDVIESLGFSARPGNQIRMEDIAARLERNGFDRVATVREVGEFAVRGGILDVFVPGTEEPVRLDFFGDTLESIRTFDPASQRTIAQARSLDLNPMSEVTLTPDTIGRFRKNYLSLFGAATRDDALYQAVSEGRRYAGMEHWLPLFYEQLETAFDYLKGFRIVTDHTAKEAAKERSKLVLDYYEARRASGETKGSTQGAPYKPVSPGQIYLDGKSFEAALASVNAVRLTPFNEHDSEGRPVATLDAHVGPRWARPPTEGDSEERVNVFDLAVKHIAERRAKGWKVLITGWSEGSLDRLLQVLNEHGLEKIKPVTSLKEVKKLGKGEAACAVLSLEAGFETGTLAVIGEQDILGDRMVRRSKRRKRGADFIAEVAGLDEGSLVVHAEHGIGRFVGLQTIEAAGAPRACLELHYADDAKLFLPVENIDLLSRYGSDAAEATLDKLGGGAWQMRKAKLKKRLLDMADELIRIAAARLVRHAPALIAPDGLYDEFAARFPYDETEDQLNAIEAVRDDLGAGRPMDRLICGDVGFGKTEVALRAAFLAAMNGVQVAVVVPTTLLARQHFRTFSERFRGLPIRVQQASRLVGSKELALTKKEVAEGKTDIVVGTHALLGAGISFANLGLLIIDEEQHFGVKHKERLKELKSDVHVLTLSATPIPRTLQLAMTGVRELSLITTPPVDRMAVRTFISPFDPLVIRETLMREHYRGGQSFYVCPRLADLADIHAFLQSDVPELKVAVAHGQMAAGELEDIMNAFYDGKYDVLLSTTIVESGLDVPTANTLIVHRADMFGLAQLYQLRGRVGRSKVRAFALFTLPVNKVLTTMAERRLKVLQSLDTLGAGFQLASHDLDIRGAGNLLGEEQSGHIKEVGFELYQQMLEEAVAEVKGDEEVRDSGWSPQISVGTSVMIPEDYVPDLHLRMGLYRRLGELADISEIDGFGAEMIDRFGPLPKEVQHLLKIVYIKSLCRTANVEKVDAGPKGVVVQFRNKEFPNPAALVGYIGKQGSMAKIRPDHSLFLNRDLPTPEKRLTGAAMVMTQLAELARS | failed |
| MIAHMTRDNEYKTIKDRLITLVEKEQAHRTLNQYNSDKANHDITRLSNKMRLLRRLIEHPVILNEKVSSLGNNTKRAVKGLATGLVMVAVTITAISARDYWGEITASFIIAMSFIYALREIFKDDLRDMLWRWISKGKAKWRRHYFDPTTGKQVGDKEEWLDYKKLSELPDRIQAIRKKRIVQREEQILHYRSHTEMSTSRFMSGYEETRETMMIDLRAIMRQMDKGSNHIYQLNNGQVSRESVEKRHLLNLIAKEKHHKGEPTYYRWKIVLNRSRIVDIESIPLT | failed |
| MIATIQNEKVIVSISDKGAELQSVRLKEDNTEYLWQGDSTYWGRRAPILFPIVGRLVDNTYYVDDKPYSLTQHGFARDLTFTVKEQSETKITYIVTSNEETLKKYPYEFELLVSYELDGQIVHVTYEVNNPTSKEMFFSIGAHPGFNFPLLEGESFTDYHLSFNGSERLETSVLEGPYLSNKKQLIAESTNELPLTYDLFKNDALIFENMNTDEISIRSHKHNKFVKVEFDGFPFVGVWTPGENAPFLCIEPWYGIADEVNPAKDFKEKKGIQSLQANETFTCRYSITIG | failed |
| MICFIKTLFVKIKRKKTSYVTFFLMPILTTLLALSLSFSNNNQAKIGILDKDNSQISKQFIAQLKQNKKYDIFTKIKKEHIDHYLQDKSLEAVLTIDKGFSDKVLQGKSQKLNIRSIANSEITEWVKAQTNYLLENYNIIGDVALGNEDTFNRILQKNQQLNYDVKQVTLTDRSRSKAVSSTTTGFLLILMLGSTSVIYSGILADKSSQLYHRLMLSNLSRFRYMLSYVCVGFVAFTIQIVIMLSLLKVFNISFFVPTSLLLIIFFLFSLLAIGFGLLIGAITQNSQQSSQLANLIVMPTSMLAGCLWPLSITPSYMQAIGKLLPQNWVLSAIAIFQSGGTLSQAWPYLLALMGTALALISFSSLLLKPTKL | failed |
| MICKLKLLSLPSYSSKPCNFYIHLKCSELPQKIRHPFDRNHLLSLISSPKYQEGRFRCNACGKDGDRLAYHCGDCGIDLHTVCANMPSRVTHQSHPHHQLSLTFSMPPGGPGSAAASSFQCCVCRGLGSNSWLYSCGECSGFDAHL | failed |
| MICRTIVEGTTKISVPVPPPDANFPPSAAPVFYNPEMELNRDINVAATAAFVERLLSKKDILREEIRYVDAFSASGIRGLRIAGEVGIHSTMNDWSHEAFELIKENIKINGLEEKAQATRRNANVLLHEQRFHIVDVDPFGTPSPYLDAAASSAYSMLSVTATDTAPLCGAHLNSGIRKYASVPLNTEYHSEMGLRVLLGACARELAKHEKGMLPLLSHVTRHYVRTYLEVLPGSRKADKTLKSMGFVAHCPRCGFRKPVYGLAVHIEKECPECGGLTKIAGPLWLGPYREPEFCNEVISELEAHPLNTKEKVRKIITFCRDELDIPMFYDQHVICKELGASATGIESLIEALRAGGFEASRTHFTGTSFKTDAPIAEIKKIILALSG | failed |
| MIDDKYFDVFNDKSTLQAIAVPERLERRTTVTDRIDRNGTRHEAVVPVGAAYTLLPKQFCKPAAKNYLFELDDFQKISVCSLERDESVLVSAHTSSGKTVVAEYAIAMSLRSNQRVVYTSPIKALSNQKYRELLSEFSDVGLMTGDVTINPTASCLVMTTEILRNMLYRGGEVVREIHWIIFDEIHYMRDKERGVVWEETIILLPKHVRMVFLSATIPNALEFAEWISHIQSQVVHVVYTEKRVTPLVHYFRSNKLYKIKDAKFHKSNFLSAMRSIRKRNVGPREVGEAIGDASLPVVVFSFKRKDCERFAMKLDGRYLTDEEARTVQTIFTNAIMSLRKEDREIPIIQNILPLLMRGIGIHHSGLLPIIKEVVEILFQEGLLKVLFATETFSIGLNMPAKSVVFTALKKFDGEAMRLVSSGEYIQMSGRAGRRGIDSMGIVISIISEPITYKEASRLFSASSDNLVSAFRLTYNMLLNLMRVEGLDPLYLISRSFHHFQSYKKALAEEETLHLMYRRLEDIEPNETACLYRKREEKKVERGKRLVEAFGKYLKKGRVVDLFIPRNGPSITIRNAIVSKAREKVQCMVGTEEGVYMCSFPLHYIDCVYDIRVKLDVRVFTKSFEKIAVRDELDEEIEEIEGKILSMDPEWSFDFCVLCGKSSVGCLVSCSRELIDSEAVIVQMPENTKRYGESLEAARYPSTEMKSNMDGARAFFVNETLRQRYLEKLLELNSLKEIYHMRECKKMIEVLKKLEYCDDTTVLIKGRMACEISSGDELVLTEMIFNGDFAGIPVEHFVPLLSCIVFEEWDSDSFVLSDENKLYYRLLSDSVEKVCKVLKSCGIEIDPAAYLKRFSYELMDVVRMWVCGCTFISICSKTSIFEGSIIRTFKRLEELLRQLSSAARVIGNTELENMFALGIVKIKRDIVFANSLYI | failed |
| MIDLDPRLAADTHPVTQWPLSQVRLMDDVRFPWLVLIPDRPGLVEIFDLPAEDQDKMWREVAHAAATLKTLSGAHKINIGALGNQVSQLHIHIIARRPDDGAWPGPVWGVGERQRYDQAELAEFLSGLRAQLIAPGQGIVEEGQTR | failed |
| MIDMFPMEKGEEQETYELIVRVFHKYVAPVYSENGVARFLGMLSPEGLSEMNNGKNSFVIVARDQSKIIGMISVINDSHIALFFVSPRYQGKGIGKNILDEAIKNCLNRNPELSAVTVSSSPNSKSFYEEAGFEVIGNEINEEGLRFTPMRKLLRQLEHHHHHH | failed |
| MIDRRRVRHSFHRQALEYDAHAAVQKRVVERFLQILDDEVGSPLRILDVGAGTGLLARQLADCHPAALLSCVDLAPGMAATARQRLGSRALVAVADAEHLPFAGASFDCVVSTSTFQWLTTLDAAFGEVWRVLAPGGLFAFALFGHGTFHELKDSYRSALTAVGREDEDRTQRFFTEAEAGAALERTGFGVRRLCVEDEVEWHPDVPAFLRSVKRVGAGNASPLRGRGLAERRVMVEMMRVYGERYGGERGIPATYTVIYGVGVKSGRK | failed |
| MIDTIIISLIAFSILVSLWRGFISEVLSLSGWIAAFFVASTFYPYLSSYLNEIDSVYLQNSEYLRNGIAAAILFIITLILCGIVNALLSKIINTTGLSATDRVLGIAFGALRGILIVAAILFFIDTFTTSNQTELWQESQLIPHFDFIVKWFFEQLQANSSFLNSTTTTK | failed |
